Laboratory results: patent US20260265360A1, “USE OF ANTI-FAM19A5 ANTAGONISTS FOR TREATING HEARING DISORDERS” (NEURACLE SCIENCE CO., LTD., priority 2023, published 2026)

Assays:
[1] = tested on: human FAM19A5 protein epitope fragments F1-F6; assay: Epitope mapping: binding to BSA-conjugated FAM19A5 epitope fragments F1-F6 (Western blot / ELISA); details: ELISA
Method: Overlapping peptide fragments (F1-F6 epitope fragments; SEQ ID NOs: 178-183) of the human FAM19A5 protein were synthesized and conjugated to BSA (SEQ ID NOs: 322-327). Binding of the different anti-FAM19A5 antibodies to the BSA-conjugated peptide fragments F1-F6 was determined by Western blot analysis or ELISA assay. For the Western blot analysis, BSA-conjugated FAM19A5 fragments F1-F6 were separated by SDS polyacrylamide gel electrophoresis and transferred to a nitrocellulose membrane by the standard procedure. The membrane was incubated with the anti-FAM19A5 antibody (e.g., 1-65, […], 1-65-scFv-rabbit Fc-SSS), and the antigen-antibody complexes were detected with the appropriate secondary antibody conjugated with horse-radish peroxidase (anti-rabbit IgG (Fc specific)-HRP, 1:4000 dilution). For the ELISA assay, the following protocol was used. FAM19A5 fragment F1-F6 (diluted to 1 μg/mL in 50 mM carbonate buffer (Biosesang) or to 20 μg/mL for high concentration analysis) were used to coat the wells of 96-well immuno plates (Thermo Scientific) (100 μL/well) overnight at 4° C. and then subsequently washed twice in 1×PBS. The plates were then blocked with the blocking buffer (100 μL/well) for 1 hour at room temperature. During the 1-hour incubation, the relavant anti-FAM19A5 antibodies were diluted to 1 μg/mL (or 20 μg/mL for high concentration analysis) in the diluent buffer. Once the plates were washed (2× using 1×PBS), the diluted anti-FAM19A5 antibodies were added to the appropriate wells, and the plates were incubated at room temperature for 1 hour. The plates were subsequently washed for a total of five times using the washing buffer. Next, the ODP substrate (prepared by dissolving one ODP tablet (O-phenylenediamine Dihydrochloride, Thermo) into 9 mL of sterilized deionized water and 1 mL of 10× stable Peroxide Stable buffer (Theromo)) was added to each of the wells, and the color change reaction was allowed to occur for 10 minutes. This reaction was stopped by adding 100 μL of 2N H2SO4 (Daejung) to the wells. The absorption value of each of the wells was detected at 492 nm using a 96-well microplate reader (Molecular Device).

FAM19A5 antigen = FAM19A5 antigen (Homo sapiens, UniProt Q7Z5A7); assay: Cross-competition two-site sandwich ELISA; assay type: binding; details: antibodies 1-65, P2-A03, P2-F11, 13B4, 2-13, 3-2; cross-competition = S/N ratio lower than 2
Sequence of FAM19A5 antigen (Q7Z5A7 44-132): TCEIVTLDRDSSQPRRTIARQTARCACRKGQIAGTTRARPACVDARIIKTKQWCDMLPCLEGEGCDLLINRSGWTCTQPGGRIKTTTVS
Method: The term “S/N” refers to the signal to noise ratio, which is measured as follows: [O.D. of 10 ng/ml antigen]/[O.D. of 0 ng/ml antigen].
Next, a two-site sandwich ELISA was used as described below to assess whether the different anti-FAM19A5 antibodies with similar binding epitopes cross-compete with each other.
First, the indicated anti-FAM19A5 antibodies were diluted in 1×PBS to a concentration of 10 μg/mL. The diluted anti-FAM19A5 antibodies (10 μg/mL in 1×PBS) (“capture antibody”) were used to coat the 96-well plates (100 μL/well) at 37° C. for approximately 1 hour. After the incubation, the plates were washed with the washing buffer (0.01% Tween-20/PBS; also called 0.01% PBST) for a total of five washes, blocked with the blocking solution (5% BSA/PBS; also called 5% PBSA) (250 μL/well) for one hour at 37° C., and then washed again. Next, 100 μg/mL of the FAM19A5 antigen (diluted in PBS containing 5% BSA, 0.01% Tween-20; also called 5% PBSAT; “diluent buffer) was added to each of the wells, and the 96-well plates were incubated for 2 hours at 37° C. After the incubations, the plates were washed using 0.01% PBST for a total of five washes. After the final wash, the indicated biotinylated anti-FAM19A5 antibodies (“detection antibody”) (diluted to lug/mL in 5% PBSAT) were added to the relevant wells (100 μL volume) and the plates were incubated for an additional 1 hour at 37° C. Afterwards, the plates were washed again with 0.01% PBST (five total washes). Next, 100 μL of the diluted (1/2000 in 5% PBSAT) Streptavidin-HRP (1 mg/mL, Sigma, USA) was added to the wells, and the plates were incubated for 30 minutes at room temperature. The plates were then washed and treated with 100 μL of the TMB substrate ([…], Thermo Fisher Scientific). After an additional 30-minute incubation at room temperature, the color change reaction was induced by the addition of the TMB substrate. This reaction was stopped using 50 μL of sulfuric acid (2N H2SO4), and the extent of color change was detected via absorption at 450 nm with reference wavelength at 620 nm using a 96 well microplate reader (Molecular Device).

B1: 2-13: anti-FAM19A5 antibody; VH SEQ ID NO: 35, VL SEQ ID NO: 39 (antibody, V domains shown)
VH: AVTLDESGGGLQTPGGALSLVCKASGFTFSSHGMFWVRQTPGKGLEYVAEITNDGSGTNYGSAVKGRATISRDNGQSTVRLQLNNLRAEDTGTYFCARSTYECPGGFSCWGDTGQIDAWGHGTEVIVSS
VL: ALTQPSSVSANPGETVKITCSGGSYSYGWFQQKSPGSALVTVIYWDDERPSDIPSRFSGALSGSTNTLTITGVQADDEAVYFCGTEDISGTAGVFGAGTTLTVL
modifications: 2-13 VH; 2-13 VL
In the case of B1, the “binding to any of the epitope fragments F1-F6” value [1] is reported as “did not appear to bind” and the “cross-competition with the other anti-FAM19A5 antibodies” value (FAM19A5 antigen) is reported as “did not cross-compete”.
